Test: soluble on expression in E. coli; label from the status in PepcDB or PDB records

Row | Sequence | soluble on expression in E. coli
1 | SPNSQYLKTRILDIYTPEQRAGIEKSEDWRQFSRRMDTHFPKLMNELDSVYGNNEALLPMLEMLLAQAWQSYSQRNSSLKDIDIARENNPDWILSNKQVGGVCYVDLFAGDLKGLKDKIPYFQELGLTYLYLMPLFKCPEGKSDGGYAVSSYRDVNPALGTIGDLREVIAALHEAGISAVVDFIFNHTSNEHEWAQRCAAGDPLFDNFYYIFPDRRMPDQYDRTLREIFPDQHPGGFSQLEDGRWVWTTFNSFQWDLNYSNPWVFRAMAGEMLFLANLGVDILRMDAVAFIWKQMGTSCENLPQAHALIRAFNAVMRIAAPAVFFKSQAIVHPDQVVQYIGQDECQIGYNPLQMALLWNTLATREVNLLHQALTYRHNLPEHTAWVNYVRSHDDIGWTFADEDAAYLGISGYDHRQFLNRFFVNRFDGSFARGVPFQYNPSTGDCRVSGTAAALVGLAQDDPHAVDRIKLLYSIALSTGGLPLIYLGDEVGTLNDDDWSQDSNKSDDSRWAHRPRYNEALYAQRNDPSTAAGQIYQGLRHMIAVRQSNPRFDGGRLVTFNTNNKHIIGYIRNNALLAFGNFSEYPQTVTAHTLQAMPFKAHDLIGGKTVSLNQDLTLQPYQVMWLEIA | soluble
2 | MDSLMRVFSHRSPPPSFGFACDVGAHPSSTAQNLPMTYGSVREMIDDFSIVFGVPKYRTSKPKKVTRKFSFTRLLQPIDNLVTCPACSNIHPSDTICDACYAKVHQLTSEIKKKMMQYNPYVGEKQDKEVYVKFRGEPDAPAAVVKGKRVLEIEKERPTWFKKLTLKE | not soluble
3 | YDSEVIEYAKEQENIISKLEYRVYKHDDGRSVNRQDLMRDYARVLYSSSFRRLQGKMQLLGVDASKFNRNRLTHSLEVAQIARSIAYDLELNHTVVAETASLAHDIGNPPFGHYGEVVLNDLSLACGGYEGNAQAFRILRTLEKKHYAYPGLNLNVRTLMAITKYFFNKHQNNKKFLYDADYEFLKTELDSKGVTVTKSIDAEIMDLADEIAYAAHDLEDALSFGMISLGEIVHEFSISDKFKDAYPTMTDIAKEAQNVAMKASRSGTSEEYAIVLKKELTSMIVNILCSDIGLVDGCLGYKRHAKLAEGLKKLLFKAILRKKDIQLYERRGEQIIRGLFEVYSDEKYNKDNMLLPPELRAINDCKTRLVTDYISGMMDSYAAQEYEKYFGKGSADKLYFK | soluble
4 | MKGSASTKPGGSPSTSRTAHPARANTSGNASTSGKQPQGPRAPVHAKGKPKRGGAEAEATESDKVAYTVIITNVENDFGKLHRACLPYYCGLRSDYEGTLDVERLLHEGGPQSRRLIGAVRGCSYAVRCRTETRSAEISLYGPANADFAPMQLTKAPRRPSTPAADAKSMAAPTTSSSEKLAQKDTTAPAEDVSEETALANVGAVEQLALRLRRQHYFEEHLPVSVHLPGRKADEVLLRIDKGSASSDADGTNATGVKNEEANGVAEDADADRRGSAATPVTASASREKRQRVVEEDRNADAPSLQRVKAEAPDGDEEGTEEDSATAHERGKTTENDVDRRADNGGRRSRRLTKSKSATIIAQFPRRQKDFVTAVAALSSRVPLQRVRGRLRDLPGFLSCWSLYERHLRVVFRDAESLFKAKQLLDQFELEPGLRVSLIFSDPLSRTNAEYLRAQENESVNE | not soluble
5 | MSFILPSESIDGTHPCNGLHMNGQDSLVQPLLTDFYQITMCYAYWKTGTHNEPAVFDVFFRKNPFQGEFTVFAGLEDCLRFVENFKFSQSDIDYVKKILPENAEPEFYEYLETLNGSHLTIEAVAEGSVVFPKVPLLTINGPLAMCQLIETSILNLVNYASLVATNAARFRQASGWKIQLLEFGLRRAQGPNGGLTASKYCYIGGFDATSNVLAGKLYGIPVKGTQAHSFICSFSSPAELKVRLLNHKITNEKADLFQISMEKRAWLLDQFSWKAALSEVSDGELSAFVAYAIAFPDTFLALIDTYDVIRSGVVNFVAVSLALHDLGYRSMGCRIDSGDLSYLSKELRECFVKVSTLKGEYKFFEKMSIVASNDINEETIMSLNDQQHEINAFGVGTHLVTCQKQPALGCVYKLVAQSAQPKIKLSQDVTKITIPGKKKCYRIFGKNGYAILDLMMLEDEPEPQPNQQILCRHPFEVESKRALVNANKIIKLHNVYWKDGEMITPLPTLNEIKEHVNESIRSTLRQDHRRYLNPTPYKVSVSERLYQFLHTLWLQNAPIGQLE | soluble
6 | AHHHHHHGSHFIKHFEEELIALSNAPHRGGLTKARGFFFMKVEKNYRGDYKKDCLEFERKNGLRSFVGFMTAVDIEKVMAIKSLGNVEVYLTAGISNPAIAGEEPKPWEPGTINMAIVIDEGLTIGAMANAIMTATEAKTYTLLKLGYNATGTTSDGIGVFARQGNVEWAGTATRLGFEIGKAVREALEESIKKWEKIKSL | soluble
7 | SENDVIELDDVANLMFYGEGEVGDNHQKFMLIFDTGSANLWVPSKKCNSIGCSTKHLYDSSKSKSYEKDGTKVEITYGSGTVRGFFSKDLVTLGYLSLPYKFIEVTDTDDLEPLYTAAEFDGILGLGWKDLSIGSIDPIVVELKNQNKIDQALFTFYLPVHDKHSGYLTIGGIEEKFYEGELTYEKLNHDLFWQVDLDVNFGKTSMEKANVIVDSGTSTITAPTSFINKFFKDLNVIKVPFLPFYITTCNNKDMPTLEFKSANNTYTLEPEYYMEPLLDIDDTLCMLYILPVDIDKNTFILGDPFMRKYFTVFDYDKESIGFAVAKN | soluble
8 | MIRSMTAYARREIKGEWGSATWEMRSVNQRYLETYFRLPEQFRSLEPVVRERIRSRLTRGKVECTLRYEPDVSAQGELILNEKLAKQLVTAANWVKMKSDEGEINPVDILRWPGVMAAQEQDLDAIAAEILAALDGTLDDFIVARETEGQALKALIEQRLEGVTAEVVKVRAHMPEILQWQRERLVAKLEDAQVQLENNRLEQELVLLAQRIDVAEELDRLEAHVKETYNILKKKEAVGRRLDFMMQEFNRESNTLASKSINAEVTNSAIELKVLIEQMREQIQNIE | not soluble
9 | STQESTQCHRSYLLPSGNSVTLSESTAIVSHGTTGLVTWDAALYLAEWAIENPAAFTDRTILELGSGAGLTGLAICKACCPRAYIFSDCHAQVLEQLRGNVLLNGFSLEPHTPIDAGSSKVTVAQLDWDEVTASQLSAFQADVVIAADVLYCWEMTLSLVRVLKMLEDCQRKSAPDVYVAYTIRSQDTGKLFIEELDRAGIYWEEVPPHTGKLFPYEEHSAIVILKLVLTSRHGV | soluble
10 | MPMVRNPMFLRMLGGLALALMLSAGRVATADTGTEAARAVVDKLNGALIDVMRNAKQLGYQGRYKKLDPIVREVFQFEAVAQIALGAHWKTLNDDQKREFVKKLTELSIATYAAQFNSYAGEQFQYDSDQAVKPDRVVVRYKMVAPKETPVKFDYMVNQFDGKWEIINIVVDGISDLALKKAQYTSVIDREGFDVLMSKLTQKITDYANNENNSKSLEHHHHHH | soluble
11 | MPLPSFLEVYEGLISTSSISSTDARWDEGNEQVIAKLADWLSALGFSIQIEQVAPNKQNLIAKLGSGEGGLLLAGHSDTVPFDEGRWNYNPHALTQVNNRFYGLGTADMKGFFAFIYEAVKNVDWSKQTKPLYVLATCDEETTMLGARHFTENAPFKPDYCIIGEPTSLVPIRAHKGHVANAIRVTGKSGHSSNPALGVNAIEIMHEVLFALMQLRDRLIKEYHHPGFEIPTPTLNLGHIHGGDSPNRICGCCELHYDVRPLPGISLDGLDNLMHDALREVQQKWPGRIELVPLHDPIPGYECAHDHPFIHGISEICEQEAQTVNYCTEAPFLQQVCPTLVLGPGSIDQAHQPDEFLAFEFIDPTVRVLSRAMQKYCF | soluble
12 | MGSDKIHHHHHHMNLEDIFSILPEKIEREVKRISDYNNLQEIRIKVNKPLIIQIGKKEIISNYIATKEDLKKTFNVMSGYSIYSVEDELRQGYITIKGGHRVGICGDCVLEENKIKTIKNISSLNIRICKEVTGCSNSIMKKIVYGNTVLNTIIISPPNCGKTTLLRDITRNISYGINSIQFRGKKVCVIDERSEIGACLNGVNQMDIGIRTDILDNCPKSIGIMMAIRSMAPEVIICDEIGTYDDIKSILTAVNCGVKLITTIHGFGIEDLNSRDVFKDAIKNNVFERAIVLSGRSGVGTVEYIYDFYTKERERGL | not soluble
13 | MRKPKITVIGGGTGIPVILNSLRHEEVDITAIVTVADDGGSSGAIRHVMQLTPPGDLRNVLVAMSDMPKFYERIFQYRFNAEDGALAGHPLGNLIIAGISEMQGSTYNAMQILSKFFHTTGKIYPSSEKALTLHAVFQDGQEVVGESQIAKHKGMIDHVYVANSYDDAKPTASRKVVDAIMESDMIVLGPGSLFTSILPNLVIDEIGKALCETEAEVAYVCNIMTQYGETEHFTDADHVRVLNRHLGQNFIDTVLVNVEKVPQDYMNSNQFDEYLIQVEHDFAGLQEQVPRVVSSNFLCLENGGAFHNGKSVVDELMNLIKVKELLEHHHHHH | not soluble
14 | MPSNPTRKGRVVVGMSGGVDSSVTAWLLKQQGYEVVGLFMKNWEDDDDSEYCSTRQDLLDAASVADLVGVEFEYVNFAAEYKDRVFAEFLREYSAGRTPNPDVLCNAEIKFKAFLDHAMALGAEHIATGHYARVRTVETPAGPRHQLLKALDDTKDQSYFLHRLNQVQLARTLFPLGELRKTEVRRIAHEIGLHNAAKKDSTGICFIGERPFREFLNRYLPSEPGPILTPEGQRVGTHHGLSFYTLGQRKGLGVGGVKGRQRDDGTAEAWYAARKDLARNVLYVVQGHDHPWLLSAQLQAQDASWIAGEPPAAGAYGAKTRYRQADAACRLDQAGGERFALAFEQAQWAVTPGQSAVLYDGEVCLGGGIIILEHHHHHH | soluble
15 | MGSDKIHHHHHHMTKARDDRYNFGFLDENTKRMLRRSLLKAVAIPGYQVPFGSREMPLPYGWGTGGIQLTASVIGRDDVLKVIDQGADDTTNAVNIRRFFGRVAGVATTTRTADATLIQTRHRIPETPLKPGQILIFQVPEPEPLRTLEASEVETRKLHAHQEYGLMHVKLYEDIARFGHIATSYDYPVMVNDRYLASPSPIPKFDNPKLDMNPALLLFGAGREKRLYAIPPYTKVESLAFDDHPFEIQSWQQGCAICGSHDSYLDEIVIDDAGSRMFVCSDTDYCQREKQA | not soluble
16 | SATGTPESQARFGQSVKGLLTEKVTTCGTDVIALTKQVLKGSRSSELLGQAARNMVLQEDAILHSEDSLRKMAIITTHLQYQQEAIQKNVEQSSDLQDQLNHLLK | soluble
17 | MENKKNDNQQPTVASAHHPFYLGEMKKGMFACWTVTTQCCDDTKVTILDDTGKVYATYTKAFTQSHNLTLLGQGNAIIEGNELRVYVDSSMSSQLIASTNTHLINDLNARKVGAVTDICIEDQTDNDFNDVYINVVAWNKKG | not soluble
18 | MSSIRVVALDWRYEEILHALGITPVGIVEIGKSKEPQTLKGELEGVTSVGQAKQPNLEVIQSLEPDLILASPTRQAAIMDQLKEIAPTHAYGDTSYTEVLDAMDDIATKVGAEDKAKEVRTRIESKIAQAKNKVEPGTRTALIGWSKNTLYTWVKDSFAGSLLTAAGYEYGYDGEKSAIESKTDVAELTGDKLPEMKLDVMYLYNDIEGFRSSPYADVVSNIVDVEQDTWSRSRGPLAAEAMLDQIINSLEHHHHHH | soluble
19 | MGSDKIHHHHHHMESTMKLATAPDAWGVWYADDPRQTPWERYLDEVRDSGFTATETGPWGYLPTDPSHLTDALGSRGLSVCGSALVHLLAPADAMETLRPRLEQTCGLLKAMKAEWVVLMDDSDLPLPGQSRALSPHDWASMIRNIKDAARYVTEEHGLSFVFHPHVGSGVETEAEVIRLLEETSEDSVGLCFDFGHHAYTGADAVAFMKRYADRIPYYHFKNVDPVLLAHIRQNNINFIEGFQSGVMCELDKGMVDFAEVRDFLATRGFDGYAVYEQDMYPCPPEKPFPIACHNRQVLRELGI | not soluble
